Measurements: publication PMC7220375

Target: full-length t-SNARE complex (mouse His6-SNAP25B, residues 1-206 and rat Syntaxin1A, residues 1-288) (mouse | rat) (UniProt P60879)
Sequence (P60879 whole entry, chain 1 of 2, the tested form may be a part): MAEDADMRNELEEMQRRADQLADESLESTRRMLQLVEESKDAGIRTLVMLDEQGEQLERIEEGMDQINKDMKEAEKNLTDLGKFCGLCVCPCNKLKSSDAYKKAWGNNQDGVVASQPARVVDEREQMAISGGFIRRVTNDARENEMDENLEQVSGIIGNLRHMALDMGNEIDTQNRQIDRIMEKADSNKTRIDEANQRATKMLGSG
Sequence (chain, as listed by the source, chain 2 of 2): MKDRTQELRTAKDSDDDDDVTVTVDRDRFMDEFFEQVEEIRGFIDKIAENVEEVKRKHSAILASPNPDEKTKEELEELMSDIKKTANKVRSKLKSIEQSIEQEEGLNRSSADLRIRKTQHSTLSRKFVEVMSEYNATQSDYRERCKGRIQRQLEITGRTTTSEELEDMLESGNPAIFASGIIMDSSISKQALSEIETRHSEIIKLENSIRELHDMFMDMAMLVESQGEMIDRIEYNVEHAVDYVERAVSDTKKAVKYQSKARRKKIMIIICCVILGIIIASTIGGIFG

Substance: Syt1^LLQQ (rat Synaptotagmin1-His6, residues 57-421, L387Q/L394Q) (from UniProt P21707 57-421) (domain or fragment)
- share of clamped vesicles that stay unfused after Ca2+ (1 mM), normal VAMP2, with 2 µM Cpx (tripartite interface of Syt1 with Cpx and SNAREs): 25%
